Source: patent US20260001928A1 (CORTERIA PHARMACEUTICALS, priority 2022, published 2026)
*1 amine or outer side, *2 acyl side, *3 side chain or, on linkers, in order; H or OH if unused. Where no end group is shown, it is not given here. Side-chain parts run from the residue outwards. [ ]: non-standard residue; d: D form. The star is where a group is joined. C18 diacid = O=C(O)CCCCCCCCCCCCCCCCC(=O)*; C16 diacid = O=C(O)CCCCCCCCCCCCCCC(=O)*; γGlu = O=C(O)[C@H](CCC(=O)[*:2])N[*:1]; C12 diacid = O=C(O)CCCCCCCCCCC(=O)*; NMeI = CC[C@H](C)[C@H](NC)C(=O)O; Api = NC1(C(=O)O)CCNCC1; Pentanoyl = CCCCC(=O)*; Aib = CC(C)(N)C(=O)O; Propionyl = CCC(=O)*

T1: CRF1R receptor (UniProt P34998 24-415, limits assumed)
T1 sequence (looked up): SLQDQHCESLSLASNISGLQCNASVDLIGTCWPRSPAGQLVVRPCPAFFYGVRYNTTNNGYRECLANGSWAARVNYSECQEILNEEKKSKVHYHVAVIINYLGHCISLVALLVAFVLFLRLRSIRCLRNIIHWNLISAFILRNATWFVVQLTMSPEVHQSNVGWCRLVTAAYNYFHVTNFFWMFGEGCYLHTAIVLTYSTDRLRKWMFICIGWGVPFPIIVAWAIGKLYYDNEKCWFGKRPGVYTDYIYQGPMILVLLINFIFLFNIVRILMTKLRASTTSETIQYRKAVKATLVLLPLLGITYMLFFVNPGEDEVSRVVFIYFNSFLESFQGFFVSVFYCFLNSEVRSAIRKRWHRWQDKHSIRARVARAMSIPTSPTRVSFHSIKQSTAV


Assays:
[1] = molecular target: human corticotropin-releasing factor 2a (CRF2a receptor) (human), Q13324; assay: cell-based or functional assay
Chain of human corticotropin-releasing factor 2a (CRF2a receptor) (human), Q13324 (Q13324 20-411): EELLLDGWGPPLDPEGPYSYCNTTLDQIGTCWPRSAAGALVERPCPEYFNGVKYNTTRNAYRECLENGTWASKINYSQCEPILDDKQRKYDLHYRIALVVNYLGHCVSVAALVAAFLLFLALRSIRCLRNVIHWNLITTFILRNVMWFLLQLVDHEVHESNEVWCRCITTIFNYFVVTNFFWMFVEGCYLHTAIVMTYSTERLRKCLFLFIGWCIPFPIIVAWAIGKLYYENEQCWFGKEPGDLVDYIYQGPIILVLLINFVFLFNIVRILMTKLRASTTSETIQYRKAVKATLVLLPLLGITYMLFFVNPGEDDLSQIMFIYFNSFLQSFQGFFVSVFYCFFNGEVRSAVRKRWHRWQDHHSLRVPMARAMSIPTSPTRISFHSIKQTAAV

[2] = molecular target: T1, CRF1R receptor; assay: cell-based or functional assay

EC50 [nM] (cAMP) [1] | Emax (% I) [2] [%] | EC50 [2] [nM] | Binder
0.79 | 2 | – | [NMeI]VLSLD[dV]PIKLK([γGlu-C12 diacid])KILLEQEKQKKQREQAETN[Aib]QILAQV-NH2 (N-terminus assumed; SMILES CC[C@H](C)[C@H](NC)C(=O)N[C@H](C(=O)N[C@@H](CC(C)C)C(=O)N[C@@H](CO)C(=O)N[C@@H](CC(C)C)C(=O)N[C@@H](CC(=O)O)C(=O)N[C@@H](C(=O)N1CCC[C@H]1C(=O)N[C@H](C(=O)N[C@@H](CCCCN)C(=O)N[C@@H](CC(C)C)C(=O)N[C@@H](CCCCNC(=O)CC[C@H](NC(=O)CCCCCCCCCCC(=O)O)C(=O)O)C(=O)N[C@@H](CCCCN)C(=O)N[C@H](C(=O)N[C@@H](CC(C)C)C(=O)N[C@@H](CC(C)C)C(=O)N[C@@H](CCC(=O)O)C(=O)N[C@@H](CCC(N)=O)C(=O)N[C@@H](CCC(=O)O)C(=O)N[C@@H](CCCCN)C(=O)N[C@@H](CCC(N)=O)C(=O)N[C@@H](CCCCN)C(=O)N[C@@H](CCCCN)C(=O)N[C@@H](CCC(N)=O)C(=O)N[C@@H](CCCNC(=N)N)C(=O)N[C@@H](CCC(=O)O)C(=O)N[C@@H](CCC(N)=O)C(=O)N[C@@H](C)C(=O)N[C@@H](CCC(=O)O)C(=O)N[C@H](C(=O)N[C@@H](CC(N)=O)C(=O)NC(C)(C)C(=O)N[C@@H](CCC(N)=O)C(=O)N[C@H](C(=O)N[C@@H](CC(C)C)C(=O)N[C@@H](C)C(=O)N[C@@H](CCC(N)=O)C(=O)N[C@H](C(N)=O)C(C)C)[C@@H](C)CC)[C@@H](C)O)[C@@H](C)CC)[C@@H](C)CC)C(C)C)C(C)C) [SEQ ID NO 186]
3.54 | 2 | – | Pentanoyl-VLSLD[dV]PIKLK([γGlu-C12 diacid])KILLEQEKQKKQREQAETN[Aib]QILAQV-NH2 (SMILES CCCCC(=O)N[C@H](C(=O)N[C@@H](CC(C)C)C(=O)N[C@@H](CO)C(=O)N[C@@H](CC(C)C)C(=O)N[C@@H](CC(=O)O)C(=O)N[C@@H](C(=O)N1CCC[C@H]1C(=O)N[C@H](C(=O)N[C@@H](CCCCN)C(=O)N[C@@H](CC(C)C)C(=O)N[C@@H](CCCCNC(=O)CC[C@H](NC(=O)CCCCCCCCCCC(=O)O)C(=O)O)C(=O)N[C@@H](CCCCN)C(=O)N[C@H](C(=O)N[C@@H](CC(C)C)C(=O)N[C@@H](CC(C)C)C(=O)N[C@@H](CCC(=O)O)C(=O)N[C@@H](CCC(N)=O)C(=O)N[C@@H](CCC(=O)O)C(=O)N[C@@H](CCCCN)C(=O)N[C@@H](CCC(N)=O)C(=O)N[C@@H](CCCCN)C(=O)N[C@@H](CCCCN)C(=O)N[C@@H](CCC(N)=O)C(=O)N[C@@H](CCCNC(=N)N)C(=O)N[C@@H](CCC(=O)O)C(=O)N[C@@H](CCC(N)=O)C(=O)N[C@@H](C)C(=O)N[C@@H](CCC(=O)O)C(=O)N[C@H](C(=O)N[C@@H](CC(N)=O)C(=O)NC(C)(C)C(=O)N[C@@H](CCC(N)=O)C(=O)N[C@H](C(=O)N[C@@H](CC(C)C)C(=O)N[C@@H](C)C(=O)N[C@@H](CCC(N)=O)C(=O)N[C@H](C(N)=O)C(C)C)[C@@H](C)CC)[C@@H](C)O)[C@@H](C)CC)[C@@H](C)CC)C(C)C)C(C)C) [SEQ ID NO 185]
0.28 | 32 | – | Ac-IVLSLD[dV]PIKLK([γGlu-C18 diacid])KILLEQEKQK[Aib]QREQAETN[Api]QILAQV-NH2 (SMILES CC[C@H](C)[C@H](NC(C)=O)C(=O)N[C@H](C(=O)N[C@@H](CC(C)C)C(=O)N[C@@H](CO)C(=O)N[C@@H](CC(C)C)C(=O)N[C@@H](CC(=O)O)C(=O)N[C@@H](C(=O)N1CCC[C@H]1C(=O)N[C@H](C(=O)N[C@@H](CCCCN)C(=O)N[C@@H](CC(C)C)C(=O)N[C@@H](CCCCNC(=O)CC[C@H](NC(=O)CCCCCCCCCCCCCCCCC(=O)O)C(=O)O)C(=O)N[C@@H](CCCCN)C(=O)N[C@H](C(=O)N[C@@H](CC(C)C)C(=O)N[C@@H](CC(C)C)C(=O)N[C@@H](CCC(=O)O)C(=O)N[C@@H](CCC(N)=O)C(=O)N[C@@H](CCC(=O)O)C(=O)N[C@@H](CCCCN)C(=O)N[C@@H](CCC(N)=O)C(=O)N[C@@H](CCCCN)C(=O)NC(C)(C)C(=O)N[C@@H](CCC(N)=O)C(=O)N[C@@H](CCCNC(=N)N)C(=O)N[C@@H](CCC(=O)O)C(=O)N[C@@H](CCC(N)=O)C(=O)N[C@@H](C)C(=O)N[C@@H](CCC(=O)O)C(=O)N[C@H](C(=O)N[C@@H](CC(N)=O)C(=O)NC1(C(=O)N[C@@H](CCC(N)=O)C(=O)N[C@H](C(=O)N[C@@H](CC(C)C)C(=O)N[C@@H](C)C(=O)N[C@@H](CCC(N)=O)C(=O)N[C@H](C(N)=O)C(C)C)[C@@H](C)CC)CCNCC1)[C@@H](C)O)[C@@H](C)CC)[C@@H](C)CC)C(C)C)C(C)C) [SEQ ID NO 188]
0.26 | 37 | 195 | Ac-IVLSLD[dV]PIKLK([γGlu-C18 diacid])KILLEQEKQKAQREQAETN[Api]QILAQV-NH2 (SMILES CC[C@H](C)[C@H](NC(C)=O)C(=O)N[C@H](C(=O)N[C@@H](CC(C)C)C(=O)N[C@@H](CO)C(=O)N[C@@H](CC(C)C)C(=O)N[C@@H](CC(=O)O)C(=O)N[C@@H](C(=O)N1CCC[C@H]1C(=O)N[C@H](C(=O)N[C@@H](CCCCN)C(=O)N[C@@H](CC(C)C)C(=O)N[C@@H](CCCCNC(=O)CC[C@H](NC(=O)CCCCCCCCCCCCCCCCC(=O)O)C(=O)O)C(=O)N[C@@H](CCCCN)C(=O)N[C@H](C(=O)N[C@@H](CC(C)C)C(=O)N[C@@H](CC(C)C)C(=O)N[C@@H](CCC(=O)O)C(=O)N[C@@H](CCC(N)=O)C(=O)N[C@@H](CCC(=O)O)C(=O)N[C@@H](CCCCN)C(=O)N[C@@H](CCC(N)=O)C(=O)N[C@@H](CCCCN)C(=O)N[C@@H](C)C(=O)N[C@@H](CCC(N)=O)C(=O)N[C@@H](CCCNC(=N)N)C(=O)N[C@@H](CCC(=O)O)C(=O)N[C@@H](CCC(N)=O)C(=O)N[C@@H](C)C(=O)N[C@@H](CCC(=O)O)C(=O)N[C@H](C(=O)N[C@@H](CC(N)=O)C(=O)NC1(C(=O)N[C@@H](CCC(N)=O)C(=O)N[C@H](C(=O)N[C@@H](CC(C)C)C(=O)N[C@@H](C)C(=O)N[C@@H](CCC(N)=O)C(=O)N[C@H](C(N)=O)C(C)C)[C@@H](C)CC)CCNCC1)[C@@H](C)O)[C@@H](C)CC)[C@@H](C)CC)C(C)C)C(C)C) [SEQ ID NO 187]
0.09 | 56 | 166 | Propionyl-VLSLD[dV]PIKLK([γGlu-C16 diacid])QILLKQERQKKQREQAEKNKQILEQV-NH2 (SMILES CCC(=O)N[C@H](C(=O)N[C@@H](CC(C)C)C(=O)N[C@@H](CO)C(=O)N[C@@H](CC(C)C)C(=O)N[C@@H](CC(=O)O)C(=O)N[C@@H](C(=O)N1CCC[C@H]1C(=O)N[C@H](C(=O)N[C@@H](CCCCN)C(=O)N[C@@H](CC(C)C)C(=O)N[C@@H](CCCCNC(=O)CC[C@H](NC(=O)CCCCCCCCCCCCCCC(=O)O)C(=O)O)C(=O)N[C@@H](CCC(N)=O)C(=O)N[C@H](C(=O)N[C@@H](CC(C)C)C(=O)N[C@@H](CC(C)C)C(=O)N[C@@H](CCCCN)C(=O)N[C@@H](CCC(N)=O)C(=O)N[C@@H](CCC(=O)O)C(=O)N[C@@H](CCCNC(=N)N)C(=O)N[C@@H](CCC(N)=O)C(=O)N[C@@H](CCCCN)C(=O)N[C@@H](CCCCN)C(=O)N[C@@H](CCC(N)=O)C(=O)N[C@@H](CCCNC(=N)N)C(=O)N[C@@H](CCC(=O)O)C(=O)N[C@@H](CCC(N)=O)C(=O)N[C@@H](C)C(=O)N[C@@H](CCC(=O)O)C(=O)N[C@@H](CCCCN)C(=O)N[C@@H](CC(N)=O)C(=O)N[C@@H](CCCCN)C(=O)N[C@@H](CCC(N)=O)C(=O)N[C@H](C(=O)N[C@@H](CC(C)C)C(=O)N[C@@H](CCC(=O)O)C(=O)N[C@@H](CCC(N)=O)C(=O)N[C@H](C(N)=O)C(C)C)[C@@H](C)CC)[C@@H](C)CC)[C@@H](C)CC)C(C)C)C(C)C) [SEQ ID NO 6]
4.25 | 3 | – | Ac-IVLSLD[dV]PIKLK([γGlu-C12 diacid])KILLEQEKQK[Aib]QREQAETN[Api]QILAQV-NH2 (SMILES CC[C@H](C)[C@H](NC(C)=O)C(=O)N[C@H](C(=O)N[C@@H](CC(C)C)C(=O)N[C@@H](CO)C(=O)N[C@@H](CC(C)C)C(=O)N[C@@H](CC(=O)O)C(=O)N[C@@H](C(=O)N1CCC[C@H]1C(=O)N[C@H](C(=O)N[C@@H](CCCCN)C(=O)N[C@@H](CC(C)C)C(=O)N[C@@H](CCCCNC(=O)CC[C@H](NC(=O)CCCCCCCCCCC(=O)O)C(=O)O)C(=O)N[C@@H](CCCCN)C(=O)N[C@H](C(=O)N[C@@H](CC(C)C)C(=O)N[C@@H](CC(C)C)C(=O)N[C@@H](CCC(=O)O)C(=O)N[C@@H](CCC(N)=O)C(=O)N[C@@H](CCC(=O)O)C(=O)N[C@@H](CCCCN)C(=O)N[C@@H](CCC(N)=O)C(=O)N[C@@H](CCCCN)C(=O)NC(C)(C)C(=O)N[C@@H](CCC(N)=O)C(=O)N[C@@H](CCCNC(=N)N)C(=O)N[C@@H](CCC(=O)O)C(=O)N[C@@H](CCC(N)=O)C(=O)N[C@@H](C)C(=O)N[C@@H](CCC(=O)O)C(=O)N[C@H](C(=O)N[C@@H](CC(N)=O)C(=O)NC1(C(=O)N[C@@H](CCC(N)=O)C(=O)N[C@H](C(=O)N[C@@H](CC(C)C)C(=O)N[C@@H](C)C(=O)N[C@@H](CCC(N)=O)C(=O)N[C@H](C(N)=O)C(C)C)[C@@H](C)CC)CCNCC1)[C@@H](C)O)[C@@H](C)CC)[C@@H](C)CC)C(C)C)C(C)C) [SEQ ID NO 184]
